The record followed here is article PMC6299498 (BMC Veterinary Research, 2018).

This assay addresses T1, SLA-2*HB01 heavy chain (swine leukocyte antigen 2, haplotype HB01 allele), extracellular domain (Sus scrofa).
T1 construct: SLA-2 haplotype HB01 allele, swine MHC class I heavy chain, extracellular domain stated as 275 amino acids; also called heavy chain of SLA-2*HB01
T1 MHC heavy: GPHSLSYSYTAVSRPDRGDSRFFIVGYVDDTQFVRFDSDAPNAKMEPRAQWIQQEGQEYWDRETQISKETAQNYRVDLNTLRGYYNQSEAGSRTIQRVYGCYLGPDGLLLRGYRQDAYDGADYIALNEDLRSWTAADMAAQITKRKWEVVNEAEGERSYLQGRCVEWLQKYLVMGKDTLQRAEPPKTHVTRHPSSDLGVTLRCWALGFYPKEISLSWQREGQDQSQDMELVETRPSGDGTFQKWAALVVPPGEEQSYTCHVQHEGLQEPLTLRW
Description: SEC. To be noted: both partners purified.

For ALLRSATYY, the binding result is on record as “binds”.
